Reference: publication PMC6111544, “Development of a Novel Q-body Using an In Vivo Site-Specific Unnatural Amino Acid Incorporation System” (Sensors (Basel, Switzerland), 2018)
Like-named read-outs stand apart in the source and are kept apart here.

Columns and labels:
[1] = target: T1, Nef protein (HIV-1 NL43), wild type (HIV-1 NL4-3 (NL43), strain)
T1 chain: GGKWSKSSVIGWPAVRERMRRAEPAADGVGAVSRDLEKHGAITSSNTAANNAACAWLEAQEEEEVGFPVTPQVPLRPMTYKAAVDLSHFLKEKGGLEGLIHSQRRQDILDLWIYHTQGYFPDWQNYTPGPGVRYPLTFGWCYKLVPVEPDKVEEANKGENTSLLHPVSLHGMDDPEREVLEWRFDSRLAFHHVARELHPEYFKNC

[2] = target: T1, Nef protein (HIV-1 NL43), wild type; assay: far-Western, overlay or dot blot; Western blotting: Nef wt and Nef Δ2-11 resolved by SDS-PAGE, transferred to PVDF, probed with the anti-Nef antibody, detected with anti-streptavidin IgG-HRP; anti-His-tag antibody as control; conditions: both partners purified

B1: anti-Nef (antibody, V domains shown)
VH: QVQLQQSGAELVKPGASVKLSCTASGFNIKDTYMHWVKQRPEQGLEWIGRIDPANGNTKYDPKFQGKATITADTSSNTAYLQLSSLTSEDTAVYYCASYYGIYWGQGTTLTVSS
VL: DIKMTQSPSSLSASLGERVSLTCRASQEISGYLSWLQQKPDGTIKRLIYAVSTLDSGVPKRFSGSRSGSDYSLTISSLESEDFADYYCLQYATYPLTFGAGTKLELK
binding result [1]: binds

B2: anti-Nef antibody (single-chain variable fragment for which the antigen is HIV Nef protein) (scFv, V domains shown)
VH: EVKLVESGAELVRPGASVKLSCTASGFNIKDDYMHWVKQRPEQGLEWIGWIDPENGDTEYASKFQGKATITADTSSNTAYLQLSSLTSEDTAVYYCTTRDVWGAGTTVTVMA
VL: DIKMTQSPSSLSASLGERVSLTCRASQEISGYLSWLQQKPDGTIKRLIYAVSTLDSGVPKRFSGSRSGSDYSLTISSLESEDFADYYCLQYATYPLTFGAGTKLELK
notes: scFv isolated in vitro from a constructed mouse antibody library; Section 2.4 describes expression in E. coli MV1184 and purification on an IgG-conjugated column for the antibody vectors; also called wt anti-Nef antibody; scFv
binding result [2]: binds
